Measurements reported in patent publication US8575110B2, “Peptidic nanoparticles as drug delivery and antigen display systems” (Alpha-O Peptides G, priority 2003, dated 2013).

B1: Trimer(Foldon)Cys11—COMP (protein)
chain: GSGYIPEAPRCGQAYVRKDGEWVLLSTFLGGLAPQMLRELQETNAALQDVRELLRQQVKQITFLKNTVMECDACG
notes: Recombinant foldon, two-glycine linker, COMP peptide; residue Asp 11 replaced by a cystein residue
B2: Trimer(Foldon)Cys11—Linker—COMP (protein)
chain: GSGYIPEAPRCGQAYVRKDGEWVLLSTFLGGSGLAPQMLRELQETNAALQDVRELLRQQVKQITFLKNTVMECDACG

Test: Analytical ultracentrifugation (AUC) of assembled peptidic nanoparticles
Assay type: physicochemical

| Molecule | No. of monomers (Example 4 preparation 1 (no DTT), 0.2 mg/ml) | No. of monomers (Example 4 preparation 2 (2 mM DTT), 0.2 mg/ml) | No. of monomers (Example 5 preparation 1 (dissolved directly, 2 mM DTT), 0.3 mg/ml) | No. of monomers (Example 5 preparation 1 (dissolved directly, 2 mM DTT), 0.6 mg/ml) | No. of monomers (Example 5 preparation 1 (dissolved directly, 2 mM DTT), 1.2 mg/ml) | No. of monomers (Example 5 preparation 2 (refolded from 8 M urea), 0.24 mg/ml) | No. of monomers (Example 5 preparation 2 (refolded from 8 M urea), 0.4 mg/ml) | No. of monomers (Example 5 preparation 2 (refolded from 8 M urea), 1.2 mg/ml) | No. of monomers (Example 5 preparation 2 (refolded from 8 M urea), concentration independent, one even unit) |
| --- | --- | --- | --- | --- | --- | --- | --- | --- | --- |
| B1 | 9.0 | 11.2 | – | – | – | – | – | – | – |
| B2 | – | – | 10.1 | 9.8 | 11.3 | 15.1 | 14.3 | 14.8 | 15 |
